Assay results taken from patent publication US20220242962A1 (APTEVO RESEARCH AND DEVELOPMENT, published 2022).
Like-named read-outs stand apart in the source and are kept apart here.

Legend:
[1] = target: T1, Full-length Human OX40 (human, UniProt P43489 29-277); test: flow cytometry, CHO cells expressing human OX40
T1 construct: also called OXF001; human OX40/CHO
T1 sequence: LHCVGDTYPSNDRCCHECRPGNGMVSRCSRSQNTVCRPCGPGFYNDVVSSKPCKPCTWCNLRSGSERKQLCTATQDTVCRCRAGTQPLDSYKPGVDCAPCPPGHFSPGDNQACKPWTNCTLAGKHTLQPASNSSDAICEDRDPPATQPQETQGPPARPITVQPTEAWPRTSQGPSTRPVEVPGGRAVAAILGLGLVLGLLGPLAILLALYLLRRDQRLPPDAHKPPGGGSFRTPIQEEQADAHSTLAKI

[2] = target: T2, Full-length Cyno 4-1BB (cynomolgus monkey, UniProt Q07011 24-255 (human entry)); test: flow cytometry on Jurkat cells transfected with cynomolgus 4-1BB, goat anti-human Fc secondary antibody, MFI (Mean)
T2 construct: on Jurkat or CHO cells; also called FOB006; cynomolgus 4-1BB
T2 chain: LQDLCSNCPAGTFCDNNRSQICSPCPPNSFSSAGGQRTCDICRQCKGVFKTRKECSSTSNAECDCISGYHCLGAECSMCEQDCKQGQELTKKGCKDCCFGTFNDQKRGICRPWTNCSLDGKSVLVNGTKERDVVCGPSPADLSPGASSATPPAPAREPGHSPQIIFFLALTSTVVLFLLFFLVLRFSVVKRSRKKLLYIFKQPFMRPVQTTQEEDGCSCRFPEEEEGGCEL

[3] = target: Full-length Human 4-1BB (human, UniProt Q07011 24-255); test: cell-based or functional assay
[4] = target: T1, Full-length Human OX40; test: cell-based or functional assay
[5] = target: T3, Fc gamma receptor RI (human, UniProt P12314 16-288); test: SPR, construct immobilized, receptor injected at 100 nM
T3 construct: also called FcγRI
Procedure: Fcγ receptor binding to bispecific proteins was measured by Surface Plasmon Resonance on a Biacore 8K instrument at room temperature. Bispecific proteins with modified Fc regions to reduce binding to Fcγ receptors were directly immobilized on the surface of a CM5 sensor chip to a surface density of 4000 RU. A bispecific ADAPTIR™ protein with a wild type Fc was similarly immobilized to the surface as a positive control and used as a comparator to evaluate the reduction in binding resulting from changes incorporated into the Fc region amino acid sequence. Fcγ receptors (purchased from R&D Systems) were diluted to either 100 nM (FcγRI) or 2 μM (all other Fcγ receptors) in HBS-EP+ buffer before injecting over the surface of the prepared sensor chip at 30 μL/min for 60 seconds. Maximum RU values during association phase of each injection were used to compare the extent of binding of the modified Fc to wild type value and are reported in Table 17 below.

[6] = target: T1, Full-length Human OX40; test: flow cytometry, CHO cells expressing human OX40; remark: listed apart in the source
Wherever 4-1BB Reporter Assay Max induction is given: unit not given here.
Wherever OX40 Reporter Assay Max induction is given: unit not given here.

Full-length Human 4-1BB, sequence (Q07011 24-255): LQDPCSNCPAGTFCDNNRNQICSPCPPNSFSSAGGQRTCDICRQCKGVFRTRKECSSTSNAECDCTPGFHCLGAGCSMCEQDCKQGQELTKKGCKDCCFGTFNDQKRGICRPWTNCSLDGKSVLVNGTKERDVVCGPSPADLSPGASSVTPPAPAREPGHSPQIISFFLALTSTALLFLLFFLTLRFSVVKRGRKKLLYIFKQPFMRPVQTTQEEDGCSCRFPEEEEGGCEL
T3 sequence (P12314 16-288 limits assumed): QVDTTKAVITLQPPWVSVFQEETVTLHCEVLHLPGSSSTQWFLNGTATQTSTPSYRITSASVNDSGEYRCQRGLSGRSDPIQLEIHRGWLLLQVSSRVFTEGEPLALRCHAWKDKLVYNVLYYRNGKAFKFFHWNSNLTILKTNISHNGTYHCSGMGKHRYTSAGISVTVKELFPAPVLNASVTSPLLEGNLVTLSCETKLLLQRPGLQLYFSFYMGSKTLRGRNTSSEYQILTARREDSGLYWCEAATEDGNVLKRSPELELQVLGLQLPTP

EC50 [1]: 0.57 nM
EC50 (read off the curve) [2]: ~0.3 nM
4-1BB Reporter Assay EC50 [3]: 0.018 nM
4-1BB Reporter Assay Max induction [3]: 5.5e+06
OX40 Reporter Assay EC50 [4]: 0.012 nM
OX40 Reporter Assay Max induction [4]: 1.99e+06
Max RU value during association [5]: 0 RU
EC50 [6]: 0.29 nM
max MFI [6]: 10400 MFI
B1: FXX01066 (bispecific antibody)
chain: EVQLVQSGAEVKKPGASVKVSCKASGYTFTSYWMNWVRQAPGQGLEWMGNIYPSGGSTNYAQKFQGRVTMTVDTSTSTVYMELSSLRSEDTAVYYCASFSDGYYAYAMDYWGQGTLVTVSSGGGGSGGGGSGGGGSGGGGSEIVMTQSPATLSLSPGERATLSCRASQSVSSYLNWYQQKPGQAPRLLIYYASRRHTGIPARFSGSGSGTDFTLTISSLQPEDFAVYYCQQGYNLPYTFGQGTKVEIKEPKSSDKTHTCPPCPAPPAAAPSVFLFPPKPKDTLMISRTPEVTCVVVDVSHEDPEVKFNWYVDGVEVHNAKTKPREEQYNSTYRVVSVLTVLHQDWLNGKEYKCAVSNKALPAPIEKTISKAKGQPREPQVYTLPPSRDELTKNQVSLTCLVKGFYPSDIAVEWESNGQPENNYKTTPPVLDSDGSFFLYSKLTVDKSRWQQGNVFSCSVMHEALHNHYTQKSLSLSPGGGGSPSSYVLTQPPSVSVAPGQTARITCGGNNIGSKSVNWFQQKPGQAPVLVVYDDSGRPSGIPERFSGSTSGNTATLTISRVEAGDEADYYCQVWDSSSDHVVFGGGTKLTVLGGGGSGGGGSGGGGSGGGGSQVQLVESGGGVVQPGRSLRLSCAASGFTLSYYGMHWVRQAPGKGLEWVAAISHDGSDKYYADSVKGRFTISRDNSKNTLYLQMNSLRAEDTAVYYCSNDQFDPWGQGTLVTVSSR
notes: ADAPTIR scFv-Fc-scFv, anti-4-1BB (VH-VL) N-terminal, anti-OX40 C-terminal, PAA (del) Fc; also called FX01066
